The results in this text go back to article PMC5388391.

For orientation: Kd means the equilibrium constant for the complex coming apart.

Data set [1] concerns the target T1, Nan-KLF1 zinc finger domain (mouse (murine), Nan mutant, UniProt P46099 243-358, E321D). Description: EMSA. For orientation: Mobility shift assays separate free from complexed probe on a gel.
Data set [2] deals with T2, KLF1 zinc finger domain (WT) (mouse (murine), UniProt P46099 243-358). Description: EMSA.
The target of data set [3] is T2, KLF1 zinc finger domain (WT). Description: fluorescence polarization. (Fluorescence polarisation rises when a labelled molecule tumbles more slowly, as on binding a larger partner.)
For data set [4], the target named is T1, Nan-KLF1 zinc finger domain. The data set is described as follows: fluorescence polarization.

T2 sequence (P46099 243-358): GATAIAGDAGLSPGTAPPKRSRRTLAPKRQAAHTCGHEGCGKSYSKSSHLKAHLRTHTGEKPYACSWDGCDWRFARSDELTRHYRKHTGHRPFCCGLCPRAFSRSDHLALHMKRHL
T1 sequence (P46099 243-358 E321D): as the sequence (P46099 243-358) above, with E79D counted along it

B1: Alas2 variant 2 (CT), EMSA (dsDNA)
DNA 1: TCTCTCCCAAGCCCTGGGCTC
DNA 2: GAGCCCAGGGCTTGGGAGAGA
Take B1: the binding result in data set [1] is given as “binds”.

B2: beta-globin (Hbb promoter, Category II, TG) (dsDNA)
DNA 1: TAGAGCCACACCCTGGTAAG
DNA 2: CTTACCAGGGTGTGGCTCTA
As for B2, the binding result in data set [2] is “binds”.

B3: Alas2 variant 1 (CA), EMSA (dsDNA)
DNA 1: TCTCTCCCATGCCCTGGGCTC
DNA 2: GAGCCCAGGGCATGGGAGAGA
In the case of B3, the binding result in data set [1] is given as “binds”.

B4: Alas2_fp (CG) (dsDNA)
DNA 1: TTCTCTCCCACGCCCTGGGCTC
DNA 2: GAGCCCAGGGCGTGGGAGAGA
modifications: 5' fluorescein-dT (/5FluorT/) preceding S51, written as T
With B4, the Kd worked out at 150 nM in data set [3] and 130 nM in data set [4].

B5: Alas2 (Category I, CG), EMSA (dsDNA)
DNA 1: TCTCTCCCACGCCCTGGGCTC
DNA 2: GAGCCCAGGGCGTGGGAGAGA
Take B5: the binding result in data set [2] and in data set [1] was “binds” in each case.

B6: Alas2 variant 3 (AG), EMSA (dsDNA)
DNA 1: TCTCTCCCACTCCCTGGGCTC
DNA 2: GAGCCCAGGGAGTGGGAGAGA
B6: the binding result in data set [1] is “binds”.
